EC50, AUC and IC50 data for twelve molecules are collected here from patent publication US20240109974A1 (SHANDONG SIMCERE BIOPHARMACEUTICAL, published 2024).

Assay [1] addresses T1, human TNFR2 on the surface of CHO-TNFR2 cells (human, UniProt P20333 23-461).
T1 construct: whole, on cells
T1 sequence (looked up): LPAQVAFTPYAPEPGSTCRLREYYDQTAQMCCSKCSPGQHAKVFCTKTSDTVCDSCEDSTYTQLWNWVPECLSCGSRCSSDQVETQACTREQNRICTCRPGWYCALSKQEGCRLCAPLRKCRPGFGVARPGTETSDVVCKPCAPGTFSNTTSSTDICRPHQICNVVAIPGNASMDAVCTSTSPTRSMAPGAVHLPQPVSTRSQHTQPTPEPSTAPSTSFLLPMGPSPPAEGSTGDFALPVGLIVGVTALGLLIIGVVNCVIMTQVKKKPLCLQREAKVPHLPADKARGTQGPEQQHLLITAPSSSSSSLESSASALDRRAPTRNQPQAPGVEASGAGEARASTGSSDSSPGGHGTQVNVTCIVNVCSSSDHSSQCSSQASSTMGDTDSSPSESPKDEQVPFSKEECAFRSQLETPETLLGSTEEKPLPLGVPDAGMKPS
Description: flow cytometry on CHO-TNFR2 cells. The method, then:
The transfected full-length plasmid of human TNFR2 was purchased from Sino Biological (Cat #HG10417-UT, NCBI Ref Seq: NM_001066.2). The experiment was conducted at a cell density within 80%. The cell medium was discarded; the cells were rinsed with PBS, and digested with 1 ml trypsin for 2 minutes; the digestion was stopped with a Ham's F12 complete medium containing 10% FBS, and then a cell suspension was made. The cell suspension was counted, and then an appropriate amount of cell suspension was centrifuged at 350×g; the supernatant was discarded; a corresponding volume of blocking solution (10% FBS+PBS) at a density of 1×10⁷ cells/ml was added to resuspend the cells, and the mixture was incubated at 4° C. for 30 minutes. After the incubation, the mixture was centrifuged at 350×g to remove the supernatant, and the cells were resuspended in a staining buffer (2% FBS+PBS) to a density of 2×10⁶ cells/ml, and spread onto a 96-well plate, with 50 μl of cell suspension added to each well for later use. The antibody was diluted with PBS for 10-fold gradient dilution from the highest concentration of 20 μg/m (twice the concentration); the diluted antibody was added to the well containing 50 μl of cell suspension, and placed on a microplate shaker for shaking at 500 rpm for 1 minute, so that the antibody was fully mixed with the cells; the mixture was incubated at 4° C. for 1 h. After the incubation, the cells were washed twice with the staining buffer, with 100 μl per well, and centrifuged at 350-g for 5 minutes, and the supernatant was discarded. The PE goat anti-Human IgG Fc antibody (ebioscience, Cat #12-4998-82) was diluted 250-fold with the staining buffer, with a volume of 100 μl per well added to the washed cell wells; the mixture was mixed evenly, and stained at 4° C. for 30 minutes. After the staining, similarly, the cells were washed twice with the staining buffer; finally, the cells were resuspended in 200 μl of staining buffer; signals were detected by a flow cytometer (Thermo Attune NxT). The stronger the signal, the stronger the binding ability of an antibody to TNFR2. The binding curve of an antibody was drawn with antibody concentration as the abscissa and corresponding mean fluorescence intensity (MFI) fold as the ordinate, and fitted with four parameters (GraphPad Prism9) to calculate the EC50 value.

Assay [2] has as its target T1, human TNFR2 on the surface of CHO-TNFR2 …. As to the kind of experiment: competition flow cytometry on CHO-TNFR2 cells, competitor TNFα-biotin; area under the MFI curve. Set-up: unit not given beside the values. The protocol: (§1) CHO stable cells highly expressing human TNFR2 were used for the experiment (the same as CHO-TNFR2 in Example 4). The CHO-TNFR2 cells were digested, washed twice with DPBS, then stained with Live/Dead (L/D) (20 minutes at room temperature), and plated at a density of 1×10⁵ cells/50 μl/well. A test anti-TNFR2 antibody was diluted to 6 μg/ml with a staining buffer as the starting concentration: the antibody was subjected to 3.33-fold gradient dilution, with a total of 7 concentration points. The diluted antibody was added to the plated cells at 50 μl/well, and the mixture was mixed well by gentle pipetting, and incubated at 4° C. for 30 minutes. Then the diluted 100 ng/ml of human TNFα-biotin was added at 100 μl/well, and the mixture was mixed well by gentle pipetting, and then incubated at 4° C. for 30 minutes. The mixture was washed twice with a staining buffer, and then 0.12 μg/ml PE-streptavidin (BioLegend, Cat #405204) was added at 100 μl/well; the resulting mixture was incubated at 4° C. for 30 minutes. The mixture was washed twice with a staining buffer, and then 150 μl of staining buffer was added to resuspend the cells; signals were detected by a flow cytometer (Thermo Attune NxT). The inhibitory curve of an antibody was drawn with antibody concentration as the abscissa and corresponding MFI value as the ordinate, and fitted with four parameters (GraphPad Prism9) to calculate the IC50 value. The smaller the IC50 value, the stronger the ability of an antibody to inhibit the binding of human TNFα to human TNFR2. The blocking effect of a humanized antibody was normalized to its corresponding human-murine chimeric WT antibody. The higher the percentage value, the better the inhibitory effect of the humanized antibody.

Assay [3] shares this target. As to the kind of experiment: competition flow cytometry on CHO-TNFR2 cells, competitor human TNFα-biotin. The protocol:
as §1

B1: 219-WT (antibody, V domains shown)
VH: EVQLQESGAELVRPGASVKLSCKASGYSFTNYWMNWVKQRPGQGLEWIGMIHPSDTETRLNQNFKDKATLTVDKSSSTSYMQLSSPTSEDSAVYYCARGEGLGAARSVSMDYWGQGTTVTVSS
VL: DILMTQSPSSLSASLGDRVTISCRASQDISNYLNWYQQKPDGTVKVLIYYTAILHSGVPSRFSGSGSGTDYSLTISNLEQEDIATYFCQQGNTLPWTFGGGTKLEIK
notes: Human-murine chimeric wild-type molecule
In the case of B1, the EC50 in assay [1] worked out at 0.026 ng/mL.

B2: 219-Hu3 (antibody, V domains shown)
VH: QVQLVQSGAEVKKPGSSVKVSCKASGYSFTNYWMNWVRQAPGQGLEWMGMIHPSDTETRLNQNFKDRVTITADKSTSTAYMELSSLRSEDTAVYYCARGEGLGAARSVSMDYWGQGTLVTVSS
VL: DIQMTQSPSSLSASVGDRVTITCRASQDISNYLNWYQQKPDGTVKLLIYYTAILHSGVPSRFSGSGSGTDYSLTISSLQPEDFATYFCQQGNTLPWTFGQGTKVEIK
notes: also called VH5 + VL5
In turn, B2 came in with an AUC in assay [2] of 7590. Moreover, the IC50 in assay [3] was determined as 42 ng/mL. Besides, a half-maximal response in assay [1] (EC50) required 0.018 ng/mL.

B3: 219-Hu4 (antibody, V domains shown)
VH: QVQLVQSGAEVKKPGSSVKVSCKASGYSFTNYWMNWVKQAPGQGLEWIGMIHPSDTETRLNQNFKDKATLTVDKSTSTAYMELSSLRSEDTAVYYCARGEGLGAARSVSMDYWGQGTLVTVSS
VL: DIQMTQSPSSLSASVGDRVTITCRASQDISNYLNWYQQKPDGTVKLLIYYTAILHSGVPSRFSGSGSGTDYSLTISSLQPEDFATYFCQQGNTLPWTFGQGTKVEIK
notes: also called VH6 + VL5
As to B3, the AUC in assay [2] is 7320. Moreover, the IC50 in assay [3] was determined as 43 ng/mL. Also, the EC50 in assay [1] came out at 0.018 ng/mL.

B4: 219-Hu2 (antibody, V domains shown)
VH: QVQLVQSGAEVKKPGSSVKVSCKASGYSFTNYWMNWVRQAPGQGLEWMGMIHPSDTETRLNQNFKDKATITADKSTSTAYMELSSLRSEDTAVYYCARGEGLGAARSVSMDYWGQGTLVTVSS
VL: DIQMTQSPSSLSASVGDRVTITCRASQDISNYLNWYQQKPDGTVKLLIYYTAILHSGVPSRFSGSGSGTDYSLTISSLQPEDFATYFCQQGNTLPWTFGQGTKVEIK
notes: also called VH4 + VL5
B4 registered an AUC in assay [2] of 7340. The molecule also gave a concentration for half-maximal inhibition (IC50) in assay [3] of 39 ng/mL. For the same molecule, in assay [1], the EC50 stood at 0.027 ng/mL.

B5: 219-Hu1 (antibody, V domains shown)
VH: QVQLVQSGAEVKKPGASVKVSCKASGYSFTNYWMNWVRQAPGQRLEWMGMIHPSDTETRLNQNFKDRVTITRDTSASTAYMELSSLRSEDTAVYYCARGEGLGAARSVSMDYWGQGTLVTVSS
VL: DIQMTQSPSSLSASVGDRVTITCRASQDISNYLNWYQQKPDGTVKLLIYYTAILHSGVPSRFSGSGSGTDYSLTISSLQPEDFATYFCQQGNTLPWTFGQGTKVEIK
notes: also called VH3 + VL5
On to B5, for which, in assay [2], the AUC was 7320. The IC50 in assay [3] is 47 ng/mL. Besides, in assay [1], the EC50 was found to be 0.026 ng/mL.

B6: 224-WT (antibody, V domains shown)
VH: EVQLQESGPEIVKPGASVKLSCTASGFNNKDIYMHWVKQRPEQGLEWIGRIDPATGNTKHDPKFQDKATLSSDTSSNTAYLQFSSLTSEDTAVYYCAHSPYGDFGAMDYWGQGTTVTVSS
VL: DIQMTQSPAIMSASLGERVTMTCTASSSVSSNYLHWYQQKPGSSPKLWIYSTSNLPSGVPARFSGSGSGTSYSLTISSMEAEDAATYYCHQYHRSPWTFGGGTKLEIK
notes: Human-murine chimeric wild-type molecule; also called human-murine chimeric antibody WT of #224
The molecule B6 registered an EC50 in assay [1] of 0.04 ng/mL.

B7: 001-WT (antibody, V domains shown)
VH: EVQLQESGGGLVQPGGSLNLSCAASGFAFSTYDLSWVRQTPEKRLEWVAYINNGGISTYYSDTVKGRFTISRDNAKNTLYLQMSSLKSEDTAMYYCVRGPFYGSANYFDYWGQGTTVTVSS
VL: EIVMTQSPASLSLSVGETVTITCRTSESIYSNLPWYQQKQGKSPQLLVYDATKLAEGVPSRFSGSESGTQYSLKINSLQSEDFGTYYCQHFWVTPWTFGGGTKLEIK
notes: Human-murine chimeric wild-type molecule; also called human-murine chimeric antibody WT of #001
Take B7: the EC50 in assay [1] was 0.035 ng/mL.

B8: 001-Hu5 (antibody, V domains shown)
VH: EVQLVESGGGLVQPGGSLRLSCAASGFAFSTYDLSWVRQAPGKGLEWVAYINNGGISTYYSDTVKGRFTISRDNAKNTLYLQMNSLRAEDTAVYYCVRGPFYGSANYFDYWGQGTLVTVSS
VL: DIQMTQSPSSLSASVGDRVTITCRTSESIYSNLPWYQQKPGKSPKLLVYDATKLAEGVPSRFSGSGSGTDYTLTISSLQPEDFATYYCQHFWVTPWTFGQGTKVEIK
notes: Humanized form of #001; also called VH1 + VL4
Regarding B8, the AUC in assay [2] stood at 10200. This molecule displayed an IC50 in assay [3] of 93 ng/mL. A half-maximal effect in assay [1] (EC50) was put at 0.029 ng/mL.

B9: 001-Hu3 (antibody, V domains shown)
VH: EVQLVESGGGLVQPGGSLRLSCAASGFAFSTYDLSWVRQAPGKGLEWVAYINNGGISTYYSDTVKGRFTISRDNAKNTLYLQMNSLRAEDTAVYYCVRGPFYGSANYFDYWGQGTLVTVSS
VL: DIQMTQSPSSLSASVGDRVTITCRTSESIYSNLPWYQQKPGKAPKLLIYDATKLAEGVPSRFSGSGSGTDYTLTISSLQPEDFATYYCQHFWVTPWTFGQGTKVEIK
notes: Humanized form of #001; also called VH1 + VL3
B9 showed an AUC in assay [2] of 8810. In addition, the IC50 in assay [3] stood at 85 ng/mL. Moreover, in assay [1], it took 0.035 ng/mL to reach a half-maximal effect (EC50).

B10: 001-Hu1 (antibody, V domains shown)
VH: EVQLVESGGGLVQPGGSLRLSCAASGFAFSTYDLSWVRQAPGKGLEWVAYINNGGISTYYSDTVKGRFTISRDNAKNTLYLQMNSLRAEDTAVYYCVRGPFYGSANYFDYWGQGTLVTVSS
VL: DIQMTQSPSSLSASVGDRVTITCRTSESIYSNLPWYQQKPGKAPKLLLYDATKLAEGVPSRFSGSGSGTDYTLTISSLQPEDFATYYCQHFWVTPWTFGQGTKVEIK
notes: Humanized form of #001; also called VH1 + VL1
As for B10, the AUC in assay [2] is 8840. For the same molecule, the IC50 in assay [3] turned out to be 87 ng/mL. For the same molecule, the EC50 in assay [1] was determined as 0.045 ng/mL.

B11: 001-Hu4 (antibody, V domains shown)
VH: EVQLVESGGGLVQPGGSLRLSCAASGFAFSTYDLSWVRQAPGKGLEWVAYINNGGISTYYSDTVKGRFTISRDNAKNSLYLQMNSLRAEDTAVYYCVRGPFYGSANYFDYWGQGTLVTVSS
VL: DIQMTQSPSSLSASVGDRVTITCRTSESIYSNLPWYQQKPGKSPKLLVYDATKLAEGVPSRFSGSGSGTDYTLTISSLQPEDFATYYCQHFWVTPWTFGQGTKVEIK
notes: Humanized form of #001; also called VH2 + VL4
For B11, in assay [2], the AUC stood at 10200. This molecule also displayed an IC50 in assay [3] of 87 ng/mL. Also, the EC50 in assay [1] worked out at 0.027 ng/mL.

B12: 001-Hu2 (antibody, V domains shown)
VH: EVQLVESGGGLVQPGGSLRLSCAASGFAFSTYDLSWVRQAPGKGLEWVAYINNGGISTYYSDTVKGRFTISRDNAKNSLYLQMNSLRAEDTAVYYCVRGPFYGSANYFDYWGQGTLVTVSS
VL: DIQMTQSPSSLSASVGDRVTITCRTSESIYSNLPWYQQKPGKSPKLLIYDATKLAEGVPSRFSGSGSGTDFTLTISSLQPEDFATYYCQHFWVTPWTFGQGTKVEIK
notes: Humanized form of #001; also called VH2 + VL2
Take B12: the AUC in assay [2] came to 9000. In assay [3], this molecule registered a concentration for half-maximal inhibition (IC50) of 101 ng/mL. In assay [1], the EC50 was 0.073 ng/mL.
